Experimental data from patent EP1327680B1 (CHUGAI SEIYAKU KABUSHIKI KAISHA, dated 2008).
One block for each molecule: values may come before it.

Assays:
[1] = biological target: human TPO receptor (MPL) expressed on Ba/F3 cells (human) (UniProt P40238); assay: cell-based or functional assay
[2] = biological target: T1, human TPO receptor (MPL) expressed on Ba/F3 cells (human, UniProt P40238 26-635); assay: cell-based or functional assay
T1 sequence (looked up): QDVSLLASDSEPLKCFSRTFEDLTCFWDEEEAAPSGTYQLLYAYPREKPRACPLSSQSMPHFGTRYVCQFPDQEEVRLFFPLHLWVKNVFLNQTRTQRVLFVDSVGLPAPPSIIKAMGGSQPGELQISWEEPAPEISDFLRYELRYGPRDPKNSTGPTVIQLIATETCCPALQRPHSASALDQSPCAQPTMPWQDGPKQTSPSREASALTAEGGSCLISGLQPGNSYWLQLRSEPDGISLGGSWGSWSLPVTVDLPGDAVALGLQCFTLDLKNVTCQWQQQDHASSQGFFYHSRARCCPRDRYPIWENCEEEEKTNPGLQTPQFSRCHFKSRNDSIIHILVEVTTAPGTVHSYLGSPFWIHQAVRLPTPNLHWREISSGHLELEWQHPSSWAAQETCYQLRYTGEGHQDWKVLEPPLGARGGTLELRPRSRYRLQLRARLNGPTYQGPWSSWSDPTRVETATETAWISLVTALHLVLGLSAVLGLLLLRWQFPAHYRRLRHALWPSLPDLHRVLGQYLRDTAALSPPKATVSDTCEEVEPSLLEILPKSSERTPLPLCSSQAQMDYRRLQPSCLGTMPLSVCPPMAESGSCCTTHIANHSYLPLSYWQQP

ED50, agonist activity, proliferation of BaF/mpl cells (WST-8) [1]: 0.027 nM
Molecule: human TPO (R&D Systems) (from UniProt P40225 22-353) (ligand)

ED50, TPO-like agonist activity, proliferation of BaF/mpl cells (WST-8) [2]: 75 nM
B1: reconstructed 12B5 single chain Fv (sc12B5), culture supernatant of COS-7 cells (scFv)
scFv: QVQLVQSGGGLVRPGGSLSLSCAVSGITLRTYGMHWVRQAPGKGLEWVAGISFDGRSEYYADSVQGRFTISRDSSKNTLYLQMNSLRAEDTAVYYCARGAHYGFDIWGQGTMVTVSSGGGGSGGGGSGGGGSDIQMTQSPSTLSASIGDRVTITCRASEGIYHWLAWYQQKPGKAPKLLIYKASSLASGAPSRFSGSGSGTDFTLTISSLQPDDFATYYCQQYSNYPLTFGGGTKLEIKDYKDDDDK

ED50, TPO-like agonist activity, proliferation of BaF/mpl cells (WST-8) [2]: 4440 nM
B2: sc12B5 monomer (scFv)
scFv: B1 scFv

ED50, TPO-like agonist activity, proliferation of BaF/mpl cells (WST-8) [2]: 10.1 nM
agonist activity, fold against monovalent sc12B5 [2]: ~400 fold
B3: sc12B5 dimer (scFv)
scFv: B1 scFv

ED50, TPO-like agonist activity, proliferation of BaF/mpl cells (WST-8) [2]: 29 nM
B4: antibody 12B5 (IgG) (antibody, V domains shown)
VH: QVQLVQSGGGLVRPGGSLSLSCAVSGITLRTYGMHWVRQAPGKGLEWVAGISFDGRSEYYADSVQGRFTISRDSSKNTLYLQMNSLRAEDTAVYYCARGAHYGFDIWGQGTMVTVSS
VL: DIQMTQSPSTLSASIGDRVTITCRASEGIYHWLAWYQQKPGKAPKLLIYKASSLASGAPSRFSGSGSGTDFTLTISSLQPDDFATYYCQQYSNYPLTFGGGTKLEIK

ED50, TPO-like agonist activity, proliferation of BaF/mpl cells (WST-8) [2]: 34700 nM
B5: 12B5Fab fragment (Fab, V domains shown)
VH: B4 VH
VL: B4 VL
